Assay [1] deals with T1, human recombinant TLR2 protein (human, UniProt O60603 21-588).
T1 construct: Toll-like receptor 2, human, recombinant protein from R&D systems; also called hTLR2; source: bought: R&D systems
In words: SPR; Biacore T-200; TLR2, TLR4 and integrin αvβ3 immobilised on a CM5 chip by amine coupling; CCN1 as analyte at 25 µl per min, 25 °C, phosphate buffer with 350 mM NaCl, 0.5 mM CaCl2, 0.5 mM MgCl2, 10 µg per ml BSA; global fit to 1:1 Langmuir model, KD = kd/ka. As to conditions: both partners purified. A general note: Surface plasmon resonance follows binding to a sensor surface in real time, without labels.

For assay [2], the target named is T2, human recombinant TLR4 protein (without MD2) (human, UniProt O00206 24-631).
T2 construct: also called hTLR4; source: bought: R&D systems
The description is as above. The note with it: both partners purified.

In general, Kd refers to the equilibrium constant for the complex coming apart.

T1 sequence (O60603 21-588): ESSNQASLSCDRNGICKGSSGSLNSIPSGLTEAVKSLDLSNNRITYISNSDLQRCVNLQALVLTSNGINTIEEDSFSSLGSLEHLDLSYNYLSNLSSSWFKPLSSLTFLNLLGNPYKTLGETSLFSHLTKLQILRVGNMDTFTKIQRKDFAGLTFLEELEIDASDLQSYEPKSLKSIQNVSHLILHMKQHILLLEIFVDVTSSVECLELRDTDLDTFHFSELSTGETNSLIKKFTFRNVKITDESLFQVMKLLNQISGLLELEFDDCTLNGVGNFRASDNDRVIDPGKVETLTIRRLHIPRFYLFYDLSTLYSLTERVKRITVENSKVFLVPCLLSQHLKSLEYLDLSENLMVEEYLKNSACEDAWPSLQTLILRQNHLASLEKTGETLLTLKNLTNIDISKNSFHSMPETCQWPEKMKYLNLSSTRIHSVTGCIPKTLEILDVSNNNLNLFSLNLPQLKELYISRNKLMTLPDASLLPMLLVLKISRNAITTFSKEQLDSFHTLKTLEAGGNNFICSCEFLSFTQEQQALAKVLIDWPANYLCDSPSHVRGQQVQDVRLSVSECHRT
T2 sequence (O00206 24-631): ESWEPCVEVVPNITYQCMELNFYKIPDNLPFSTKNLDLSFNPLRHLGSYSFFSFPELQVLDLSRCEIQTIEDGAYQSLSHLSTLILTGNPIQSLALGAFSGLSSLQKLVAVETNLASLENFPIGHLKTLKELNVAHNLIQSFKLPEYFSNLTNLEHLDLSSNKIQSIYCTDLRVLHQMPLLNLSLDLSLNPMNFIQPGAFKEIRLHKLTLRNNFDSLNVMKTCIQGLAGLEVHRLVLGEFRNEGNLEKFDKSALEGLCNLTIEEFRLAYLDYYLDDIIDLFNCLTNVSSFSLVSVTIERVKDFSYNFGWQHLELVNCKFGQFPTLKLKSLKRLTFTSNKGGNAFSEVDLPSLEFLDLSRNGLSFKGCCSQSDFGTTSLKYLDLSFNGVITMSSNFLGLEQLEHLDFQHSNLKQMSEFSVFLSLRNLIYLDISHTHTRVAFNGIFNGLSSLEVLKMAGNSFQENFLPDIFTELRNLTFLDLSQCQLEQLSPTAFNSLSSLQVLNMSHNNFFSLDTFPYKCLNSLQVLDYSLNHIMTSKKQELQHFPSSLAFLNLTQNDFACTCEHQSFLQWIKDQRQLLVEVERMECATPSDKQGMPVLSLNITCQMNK

B1: CCN1-WT (recombinant matricellular protein CCN1) (natural protein, UniProt P18406 25-379, looked up)
chain: TCPAACHCPLEAPKCAPGVGLVRDGCGCCKVCAKQLNEDCSKTQPCDHTKGLECNFGASSTALKGICRAQSEGRPCEYNSRIYQNGESFQPNCKHQCTCIDGAVGCIPLCPQELSLPNLGCPNPRLVKVSGQCCEEWVCDEDSIKDSLDDQDDLLGLDASEVELTRNNELIAIGKGSSLKRLPVFGTEPRVLFNPLHAHGQKCIVQTTSWSQCSKSCGTGISTRVTNDNPECRLVKETRICEVRPCGQPVYSSLKKGKKCSKTKKSPEPVRFTYAGCSSVKKYRPKYCGSCVDGRCCTPLQTRTVKMRFRCEDGEMFSKNVMMIQSCKCNYNCPHPNEASFRLYSLFNDIHKFRD
notes: CCN1 (CYR61), 40 kDa matricellular protein with IGFBP, vWC, TSR and CT domains; also called CYR61; Cyr61
As to B1, the Kd in assay [1] worked out at 227 nM; in assay [2], 291 nM.

Source of the values: paper PMC7060279, “CCN1 is an opsonin for bacterial clearance and a direct activator of Toll-like receptor signaling” (Nature Communications, 2020).
